# Tests used:
# [1] = tested on: Female BALB/C mice; assay: In vivo detection of innate immune response: human G-CSF and mouse IFN-alpha in serum; settings: Protein: Cytokine Ratio
# Experimental: Blood is collected at 8 hours after dosing and using ELISA the protein levels of G-CSF and interferon-alpha (IFN-alpha) is determined by ELISA and are shown in Table 81.
# [2] = tested on: Human primary foreskin fibroblasts (BJ fibroblasts); assay: Innate immune response in BJ fibroblasts, repeat transfection (IFN-beta, IL-6); format: cell-based; settings: daily transfection, Day 1
# [3] = Stability of modified RNA on storage (gel electrophoresis); format: physicochemical
# Experimental: Stability experiments were conducted to obtain a better understanding of storage conditions to retain the integrity of modified RNA. […] 40° C. 37° C. 25° C. 4° C. or −20° C. After the mRNA had been stored for 0 hours, 2 hours, 6 hours, 24 hours, 48 hours, 5 days and 14 days, the mRNA was analyzed by gel electrophoresis using a Bio-Rad EXPERION™ system. The modified, unmodified and lipoplexed G-CSF mRNA was also stored in RNASTABLE® (Biomatrica, Inc. San Diego, Calif.) at 40° C. or water at −80° C. or 40° C. for 35 days before being analyzed by gel electrophoresis.
# mRNA samples stored at 4° C. 25° C. and 37° C. were stored in 1×TE buffer or the formulation buffer (150 mM sodium chloride, 2 mM calcium chloride, 2 mM phosphate, 0.5 mM EDTA at a pH of 6.5). The mRNA stored at 4° C. was stable to at least 60 days in both the TE and formulation buffer. At 25° C. the mRNA in formulation buffer was stable out to 14 days and the TE buffer was stable out to at least 6 days. Storage of mRNA in the formulation buffer at 37° C. was stable to 6 days compared to the TE buffer which was stable only until 4 days.
# [4] = tested on: mice; assay: Saline formulation: human protein in mouse serum 13 hours after injection; format: in vivo; settings: G-CSF group, 100 ug
# Experimental: The mice were bled at 13 hours after the injection to determine the concentration of the human polypeptide in serum in pg/mL. (G-CSF groups measured human G-CSF in mouse serum and EPO groups measured human EPO in mouse serum).
molecule,measurement,setting,value
"G-CSF Gen 2: G-CSF mRNA SEQ ID NO 6, Cap1, fully modified with 5-methylcytosine and N1-methylpseudouridine (nucleic acid, listed as Homo sapiens, Cap1; 5-methylcytosine, N1-methylpseudouridine) GGGAAAUAAGAGAGAAAAGAAGAGUAAGAAGAAAUAUAAGAGCCACCAUGGCCGGUCCCGCGACCCAAAGCCCCAUGAAACUUAUGGCCCUGCAGUUGCUGCUUUGGCACUCGGCCCUCUGGACAGUCCAAGAAGCGACUCCUCUCGGACCUGCCUCAUCGUUGCCGCAGUCAUUCCUUUUGAAGUGUCUGGAGCAGGUGCGAAAGAUUCAGGGCGAUGGAGCCGCACUCCAAGAGAAGCUCUGCGCGACAUACAAACUUUGCCAUCCCGAGGAGCUCGUACUGCUCGGGCACAGCUUGGGGAUUCCCUGGGCUCCUCUCUCGUCCUGUCCGUCGCAGGCUUUGCAGUUGGCAGGGUGCCUUUCCCAGCUCCACUCCGGUUUGUUCUUGUAUCAGGGACUGCUGCAAGCCCUUGAGGGAAUCUCGCCAGAAUUGGGCCCGACGCUGGACACGUUGCAGCUCGACGUGGCGGAUUUCGCAACAACCAUCUGGCAGCAGAUGGAGGAACUGGGGAUGGCACCCGCGCUGCAGCCCACGCAGGGGGCAAUGCCGGCCUUUGCGUCCGCGUUUCAGCGCAGGGCGGGUGGAGUCCUCGUAGCGAGCCACCUUCAAUCAUUUUUGGAAGUCUCGUACCGGGUGCUGAGACAUCUUGCGCAGCCGUGAAGCGCUGCCUUCUGCGGGGCUUGCCUUCUGGCCAUGCCCUUCUUCUCUCCCUUGCACCUGUACCUCUUGGUCUUUGAAUAAAGCCUGAGUAGGAAG",PC Ratio,[1],748
same,IFNbeta,[2],3 pg/mL
"G-CSF Gen 1: G-CSF mRNA SEQ ID NO 6, Cap1, fully modified with 5-methylcytosine and pseudouridine (nucleic acid, listed as Homo sapiens, Cap1; 5-methylcytosine, pseudouridine) GGGAAAUAAGAGAGAAAAGAAGAGUAAGAAGAAAUAUAAGAGCCACCAUGGCCGGUCCCGCGACCCAAAGCCCCAUGAAACUUAUGGCCCUGCAGUUGCUGCUUUGGCACUCGGCCCUCUGGACAGUCCAAGAAGCGACUCCUCUCGGACCUGCCUCAUCGUUGCCGCAGUCAUUCCUUUUGAAGUGUCUGGAGCAGGUGCGAAAGAUUCAGGGCGAUGGAGCCGCACUCCAAGAGAAGCUCUGCGCGACAUACAAACUUUGCCAUCCCGAGGAGCUCGUACUGCUCGGGCACAGCUUGGGGAUUCCCUGGGCUCCUCUCUCGUCCUGUCCGUCGCAGGCUUUGCAGUUGGCAGGGUGCCUUUCCCAGCUCCACUCCGGUUUGUUCUUGUAUCAGGGACUGCUGCAAGCCCUUGAGGGAAUCUCGCCAGAAUUGGGCCCGACGCUGGACACGUUGCAGCUCGACGUGGCGGAUUUCGCAACAACCAUCUGGCAGCAGAUGGAGGAACUGGGGAUGGCACCCGCGCUGCAGCCCACGCAGGGGGCAAUGCCGGCCUUUGCGUCCGCGUUUCAGCGCAGGGCGGGUGGAGUCCUCGUAGCGAGCCACCUUCAAUCAUUUUUGGAAGUCUCGUACCGGGUGCUGAGACAUCUUGCGCAGCCGUGAAGCGCUGCCUUCUGCGGGGCUUGCCUUCUGGCCAUGCCCUUCUUCUCUCCCUUGCACCUGUACCUCUUGGUCUUUGAAUAAAGCCUGAGUAGGAAG",stable out to,"[3]; stored at 25° C., with or without lipoplex",120 h
same,stable out to,[3]; stored at 37° C.,24 h
same,stable out to,[3]; stored at 50° C.,6 h
same,"Average Protein Product, human G-CSF",[4],"45 pg/mL, serum"

# — patent US20200164038A1, “MODIFIED NUCLEOSIDE, NUCLEOTIDE, AND NUCLEIC ACID COMPOSITIONS” (ModernaTX, Inc., priority 2011, published 2020)
